In the Human Domainome abundance scans (Beltran et al. 2025):

B1: Ankyrin repeat and SOCS box protein 14, residues 532 to 572; numbered along this chain, A6NK59 (parent)
chain: RSLKHLCRLKIRKCMGRLHLRCPVFMSFLPLPNRLKAYVLY

Variants of: B1
Assay: abundance fitness (aPCA) (normalised: wild type 0, dead -1); higher = more abundant; growth selection in yeast, the domain comes from the species named
Conditions: Homo sapiens

Abundance fitness, by site and new letter:
R21: A -0.076; S -0.147; V 0.009; T -0.178; D -0.143; I 0.207; C -0.253; E -0.508; F -0.102; P -0.322; K -0.029; L 0.196; G -0.061; M 0.129; W 0.275; H -0.295; N 0.096; Q -0.623
P23: S 0.273; W 0.321; L 0.494; F 0.078; K 0.524; Q 0.407; T 0.336; M 0.334; H -0.306; C 0.28; Y 0.283; A 0.321; E 0.36; G 0.198; D 0.315; N -0.049; V 0.384; R 0.357
L6: P -0.493; S 0.155; R 0.154; H 0.054; Q 0.261; W 0.394; K 0.027; Y 0.083; V -0.183; T -0.041
C14: K -0.165; S -0.155; M 0.308; E -0.024; A 0.273; R -0.264; W 0.462; V 0.376; L 0.431; D 0.014; G -0.076; H -0.373; P -0.3
R8: L 0.07; Y 0.329; G -0.004; C 0.006; K 0.118; P 0.076; V 0.057; W 0.4; S -0.132; A 0.104; T 0.005; E -0.092; Q -0.048
C22: W 0.218; Y -0.139; H -0.052; E -0.455; N -0.719; F 0.057; S -0.247; I 0.178; G -0.339; K -0.519; R -0.282; Q -0.521; D -1.02; P -0.086; V 0.064; L 0.243; M 0.162
V24: F 0.469; W 0.233; K 0.449; C 0.251; T 0.176; P 0.137; S 0.308; N 0.316; G 0.319; E 0.347; M -0.217; R 0.352; Q 0.242; D 0.472; L -0.081; Y -0.166
C7: A 0.063; M 0.24; G -0.291; K -0.596; I 0.229; E -0.37; W 0.099; N -0.414; V 0.304; F 0.041; T -0.217; R -0.871; Q -0.529; P -0.577; H -0.631; S -0.357
H19: Y -0.336; G 0.024; F -0.097; Q -0.004; T -0.22; E -0.24; M -0.183; L 0.069; W -0.053; P -0.326; R 0.018; D -0.272; C -0.236; K 0.141; A 0.171; V -0.111
L18: S -0.735; T -0.571; R -0.894; V -0.392; I 0.248; N -1.07; F 0.006; G -0.874; A -0.544; Q -0.732; E -0.748; K -0.774; M -0.071; C -0.284
K13: A 0.009; L -0.241; I -0.091; Y -0.179; T -0.161; W -0.166; S -0.031; R 0.048; E 0.201; P -0.434; H -0.081; V -0.236; M -0.09; C -0.192; G 0.045; Q 0.086
